Data published in article PMC9979629 (Antiviral Research, 2023).

Molecular target: His-tagged wild-type SARS-CoV-2 RBD (SARS-CoV-2, UniProt P0DTC2)
Assay: ELISA

B1: K102.1 (antibody, V domains shown)
VH: EVQLLESGGGLVQPGGSLRLSCAASGFTFSDYAMSWVRQAPGKGLEWVSWIYSGSGNKYYADSVKGRFTISRDNSKNTLYLQMNSLRAEDTAVYYCARFPIARTSNSQSSYDGMDVWGQGTLVTVSS
VL: QSVLTQPPSASGTPGQRVTISCSGSSSNIGSNAVSWYQQLPGTAPKLLIYADNKRPSGVPDRFSGSKSGTSASLAISGLRSEDEADYYCGAWDSSLNAYVFGGGTKLTVL
Does B1 bind?
Result: binds

B2: K102.2 (antibody, V domains shown)
VH: EVQVLESGGGLVQPGGSLRLSCAASGFTFSSYDMSWVRQAPGKGLEWVSGISYSGGSTYYADSVKGRFTISRDNSKNTLYLQMNSLRAEDTAVYYCARDVNFVPLVTFDYWGQGTLVTVSS
VL: QSVLTQPPSASGTPGQRVTLSCTGSSSNIGSNSVTWYQQLPGTAPKLLIYDDNQRPSGVPDRFSGSKSGTSASLAISGLRSEDEADYYCGTWDYSLSAYVFGGGTKLTVL
Does B2 bind?
Result: binds
